For the data set, the system named is Nc1ncnc2c1ncn2[C@@H]1O[C@H](COP(=O)(O)O)[C@@H](O)[C@H]1O. The data set is described as follows: purified protein, by the assay type. Conditions: pH 7.5; 37.0 °C.

One may read the Km as the concentration of substrate that gives half-maximal velocity. On to “Bacillus anthracis BasA (AdsA homolog, NCBI locus tag BAS4031), tagged, affinity purified from E. coli, SEQ ID NO:41 (Bacillus anthracis)”, for which the Michaelis-Menten constant (Km) turned out to be 2.01 nM.

The record behind these values is patent publication US20110262477A1 (priority 2008, published 2011).
